The numbers were not newly measured in US20130252257A1, “QUANTIFICATION OF CIRCULATING STEM AND PROGENITOR CELLS AS A MEANS OF ASSESSING EFFICACY OF NATUROPATHIC INTERVENTIONS” (Creative Medical Health, Inc., priority 2011, published 2013), which cites them from elsewhere.

Where two headings read alike, the source gives them in different places.

Data set [1] deals with circulating EPC. The following applies: in vivo.
Data set [2] relates to endothelial responsiveness.
The subject of data set [3] is large anterior wall AMI. As to conditions: 41 patients with large anterior wall AMI.
The subject of data set [4] is ST-elevation myocardial infarction. The following applies: 6 days of G-CSF at 10 μg/kg.
Data set [5] concerns endothelial progenitor cells (EPC). As to conditions: in addition to mobilizing HSC.
The subject of data set [6] is myocardial infarct. As to conditions: 114 patients, 56 treated and 58 control.

Turning to `CC(C)c1nc(N(C)S(C)(=O)=O)nc(-c2ccc(F)cc2)c1/C=C/[C@@H](O)C[C@@H](O)CC(=O)O` [Crestor], the “circulating EPC levels” value in data set [1] is on record as “increase circulating EPC levels”.
Consider “growth hormone: growth hormone, used in antiaging medicine; clinically-applicable mobilizer”, for which the endothelial responsiveness result in data set [2] (healthy volunteers) and in data set [2] (patients with congestive heart failure) was “improve endothelial responsiveness” throughout.

B1: G-CSF: Granulocyte colony stimulating factor, used clinically for mobilization of hematopoietic stem cells (protein, UniProt P09919 31-207, looked up)
Granulocyte …: TPLGPASSLPQSFLLKCLEQVRKIQGDGAALQEKLVSECATYKLCHPEELVLLGHSLGIPWAPLSSCPSQALQLAGCLSQLHSGLFLYQGLLQALEGISPELGPTLDTLQLDVADFATTIWQQMEELGMAPALQPTQGAMPAFASAFQRRAGGVLVASHLQSFLEVSYRVLRHLAQP
As to B1, in data set [3], the “left ventricle ejection fraction (LVEF)” value is “improvement” and the pathological remodeling entry was “diminished pathological remodeling”. In data set [4] (in comparison to controls), the ejection fraction entry was “Statistically significant improvements” and the pathological remodeling entry is reported as “inhibition of pathological remodeling”. In addition, the “myocardial wall at the area of infarct” value in data set [4] (four months after infarct, versus controls, sustained over a year) is “thicker myocardial wall”. For the same molecule, the “mobilization of EPC” value in data set [5] is given as “stimulates mobilization of EPC”. The “infarct size, left ventricular function, or coronary restenosis” value in data set [6] was “no influence”.
